Data on one molecule can be found in paper PMC3088361 (Biochemistry, 2011).

For this experiment, the target named is HIV-1 YU-2 gp120 wild type (HIV-1 (isolate YU-2), UniProt P35961 32-498). As to the kind of experiment: SPR. In general terms: Surface plasmon resonance follows binding to a sensor surface in real time, without labels.

Regarding CNLHWCQLRCKSLGLLGKCAGSFCACV (designed binder, C-terminal amide (-NH2); oxidized peptide) [[F5W]CD4F23], the binding result was “binds”.
